The values that follow are results of earlier work, collected in paper PMC10219547.

pKd: −log10 of the molar value. Where two headings read alike, the source gives them in different places.

The target of data set [1] is PTH1R (Homo sapiens) (UniProt Q03431).
Data set [2] has the same target. This is another data set of the same source.

Sequence of UniProt Q03431 (Q03431 27-593): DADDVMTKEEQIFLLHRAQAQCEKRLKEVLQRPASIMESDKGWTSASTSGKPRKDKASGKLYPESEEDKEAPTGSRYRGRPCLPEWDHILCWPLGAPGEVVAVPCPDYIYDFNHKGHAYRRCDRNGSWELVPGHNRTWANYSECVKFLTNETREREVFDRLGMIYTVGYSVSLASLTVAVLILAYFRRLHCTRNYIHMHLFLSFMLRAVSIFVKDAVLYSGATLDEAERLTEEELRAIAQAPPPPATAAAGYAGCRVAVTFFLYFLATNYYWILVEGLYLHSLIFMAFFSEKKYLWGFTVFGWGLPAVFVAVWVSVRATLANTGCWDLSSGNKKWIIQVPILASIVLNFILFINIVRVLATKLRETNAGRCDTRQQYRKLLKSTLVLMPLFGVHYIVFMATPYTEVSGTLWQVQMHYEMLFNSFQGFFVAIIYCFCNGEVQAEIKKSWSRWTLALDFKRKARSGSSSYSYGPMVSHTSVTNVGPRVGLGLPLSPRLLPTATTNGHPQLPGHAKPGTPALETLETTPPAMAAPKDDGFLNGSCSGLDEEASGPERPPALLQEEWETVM

With TIP39 (from UniProt Q96A98), the pKd (in general, the negative decadic logarithm of the Kd, by convention in mol/L) in data set [1] is 7.22.
For TIP(7-39) 7-39 (from UniProt Q96A98), the pKd in data set [2] was 7.77.
